This experiment addresses T1, HA-hFc probe: H1N1 A/California/04/2009 HA ectodomain fused to human IgG1 Fc (Influenza A virus A/California/04/2009 …, UniProt C3W5S1).
T1 construct: also called HA-probe; HA-human Fc probe; source: High Five insect cells (recombinant baculovirus), purified (HiTrap Protein G); not shown: Fc (human IgG1), C-terminal, kept
As to the kind of experiment: flow cytometry on cells. To be noted: one partner purified. A general note: A flow cytometer gives signals particle by particle.

This note sets out measurements from article PMC12090727, “Cell binding, uptake, and infection of influenza A virus using recombinant antibody-based receptors” (Journal of Virology, 2025).

B1: fTfR-5J8 (Flag+) mutant D100bL (scFv, V domains shown)
VH: EVQLVESGPGLVKPSDILSLTCAVSGYSISSNYYWGWIRQPPGKGLEWIGSIYHSGSTYYKPSLESRLGISVDTSKNQFSLKLSFVSAADTAVYYCARHVRSGYPLTAYYFDKWGQGTLVTVSS
VL: SYVLTQPPSVSVAPGETARISCGGNNIGTKVLHWYQQTPGQAPVLVVYDDSDRPSGIPERFSGSNSGNTATLTISRVEVGDEADYYCQVWDISTDQAVFGGGTKLTVL
notes: also called D100bLeu
Take B1: the binding result is “binds”.
